Publication PMC12699821, “STARD4 suppresses tumorigenesis and attenuates enzalutamide resistance via lipid metabolic reprogramming and AR stabilization in prostate cancer” (Journal of Experimental & Clinical Cancer Research : CR, 2025)

Target: T1, GST-tagged AR (human (Gene ID 367 is the human gene), UniProt P10275 1-920)
T1 construct: androgen receptor, Gene ID 367, in vector pGEX-4T-1; also called GST-AR; source: BL21 (Rosetta) bacterial cells, purified (protein purification kit)
T1 sequence (looked up): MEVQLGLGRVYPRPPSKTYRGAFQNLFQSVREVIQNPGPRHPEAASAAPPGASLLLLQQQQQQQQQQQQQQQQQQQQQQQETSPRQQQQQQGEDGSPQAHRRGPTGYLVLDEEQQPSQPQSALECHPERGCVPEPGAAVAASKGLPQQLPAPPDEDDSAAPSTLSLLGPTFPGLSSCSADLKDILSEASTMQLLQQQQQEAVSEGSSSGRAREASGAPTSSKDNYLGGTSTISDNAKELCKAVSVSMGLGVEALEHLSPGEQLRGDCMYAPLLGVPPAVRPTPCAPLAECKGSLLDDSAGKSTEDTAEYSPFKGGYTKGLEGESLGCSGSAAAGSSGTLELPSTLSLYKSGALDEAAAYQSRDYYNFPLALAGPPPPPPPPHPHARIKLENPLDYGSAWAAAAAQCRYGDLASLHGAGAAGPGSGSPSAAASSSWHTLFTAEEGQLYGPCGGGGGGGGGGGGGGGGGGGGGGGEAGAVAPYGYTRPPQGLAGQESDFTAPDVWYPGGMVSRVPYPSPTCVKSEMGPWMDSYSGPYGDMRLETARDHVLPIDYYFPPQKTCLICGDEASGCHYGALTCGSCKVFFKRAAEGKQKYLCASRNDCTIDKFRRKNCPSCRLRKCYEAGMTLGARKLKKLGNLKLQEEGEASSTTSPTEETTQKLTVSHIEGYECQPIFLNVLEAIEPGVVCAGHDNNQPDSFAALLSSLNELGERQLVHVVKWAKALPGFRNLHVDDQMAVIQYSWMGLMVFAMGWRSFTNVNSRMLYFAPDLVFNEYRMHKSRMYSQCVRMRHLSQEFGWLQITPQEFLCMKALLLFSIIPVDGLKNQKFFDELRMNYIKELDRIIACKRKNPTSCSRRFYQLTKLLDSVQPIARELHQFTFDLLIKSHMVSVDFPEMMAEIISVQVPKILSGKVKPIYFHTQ
Assay: pull-down; purified GST-tagged protein immobilised on glutathione-Sepharose beads, incubated with His-tagged protein in PMSF-supplemented affinity isolation buffer, western blotting
Conditions: both partners purified

binding result: binds
B1: His-tagged STARD4 (natural protein, human (Gene ID 134429 is the human gene), UniProt Q96DR4 1-205, looked up)
chain: MEGLSDVASFATKLKNTLIQYHSIEEDKWRVAKKTKDVTVWRKPSEEFNGYLYKAQGVIDDLVYSIIDHIRPGPCRLDWDSLMTSLDILENFEENCCVMRYTTAGQLWNIISPREFVDFSYTVGYKEGLLSCGISLDWDEKRPEFVRGYNHPCGWFCVPLKDNPNQSLLTGYIQTDLRGMIPQSAVDTAMASTLTNFYGDLRKAL
notes: STARD4, Gene ID 134429, vector printed as pGMLV; also called His-STARD4; source: BL21 (Rosetta) bacterial cells, purified (protein purification kit)
